Results: publication PMC4709122 (Nature structural & molecular biology, 2015)

Experiments:
Assay in all cases: fluorescence polarisation
[1] = target: UBC9–SUMO2^B non-covalent complex (human, UniProt P63279;P61956)
[2] = target: SUMO2 (construct not stated for this experiment) (human, UniProt P61956 1-95)
[3] = target: UBC9 (human SUMO E2, untagged) (human, UniProt P63279 1-158)
Sequence of UBC9 (human SUMO E2, untagged) (P63279 whole entry): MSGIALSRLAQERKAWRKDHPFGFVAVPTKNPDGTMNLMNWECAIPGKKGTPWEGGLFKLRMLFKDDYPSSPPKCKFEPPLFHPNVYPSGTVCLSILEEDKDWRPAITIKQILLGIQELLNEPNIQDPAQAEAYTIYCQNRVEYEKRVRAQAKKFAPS

B1: Alexa488-labeled CysZNF451(2–56) (domain or fragment)
chain: CGDPGSEIIESVPPAGPEASESTTDENEDDIQFVSEGPLRPVLEYIDLVSSDDEEP
modifications: Alexa488-maleimide on the single engineered N-terminal cysteine
- Kd [1]: 2 µM
- Kd [2]: 120 to 150 µM
- Kd [3]: 10 to 16 µM
